The values below come from US11311622B2, “Development of masked therapeutic antibodies to limit off-target effects” (CITY OF HOPE, priority 2010, dated 2022).

In the assay the target is T1, MMP-9 (Homo sapiens, UniProt P14780).
T1 construct: purchased Calbiochem
Put plainly: MMP-9 digestion of masked and cross-masked scFvs (SDS-PAGE). The assay is classed as biochemical. The note with it: into the mask and scFv proteins.

T1 sequence (P14780 107-707 limits assumed, species assumed): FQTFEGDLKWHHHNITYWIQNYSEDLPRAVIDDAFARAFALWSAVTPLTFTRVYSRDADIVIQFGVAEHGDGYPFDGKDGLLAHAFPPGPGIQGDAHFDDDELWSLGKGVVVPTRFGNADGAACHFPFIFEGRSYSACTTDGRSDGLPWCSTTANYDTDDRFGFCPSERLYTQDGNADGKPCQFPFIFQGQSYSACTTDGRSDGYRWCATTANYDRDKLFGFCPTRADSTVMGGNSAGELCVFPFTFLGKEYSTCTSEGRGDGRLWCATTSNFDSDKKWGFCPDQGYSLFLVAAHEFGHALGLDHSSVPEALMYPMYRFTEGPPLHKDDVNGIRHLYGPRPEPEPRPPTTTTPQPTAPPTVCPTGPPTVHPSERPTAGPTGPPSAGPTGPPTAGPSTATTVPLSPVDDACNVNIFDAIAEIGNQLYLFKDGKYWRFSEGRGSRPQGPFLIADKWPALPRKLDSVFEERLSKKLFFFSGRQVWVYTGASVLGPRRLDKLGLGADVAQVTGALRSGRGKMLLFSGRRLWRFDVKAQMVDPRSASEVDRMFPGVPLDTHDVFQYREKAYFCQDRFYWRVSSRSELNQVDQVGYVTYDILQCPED

B1: Masked 425: sEGFRdIII (S460P/G461N) mask, MMP-9 cleavable linker, scFv 425, FLAG and H6 tags; SEQ ID NO:6 (protein)
chain: MRPSGTAGAALLALLAALCPASRARKVCNGIGIGEFKDSLSINATNIKHFKNCTSISGDLHILPVAFRGDSFTHTPPLDPQELDILKTVKEITGFLLIAAWPENRTDLHAFENLEIIRGRTKMEGQFSLAVVSLNITSLGLRSLKEISDGDVIISGNKNLCYANTINWKKLFGTSGQKTKIISNRGENSCKATGQVCHALCSPEGCWGPEPKDCVSCRNVSRGRECCSRGGGSGGGSGGGSVPLSLYSGSTSGSGKSSEGSGSGAQGELVMTQSPAIMSASPGEKVTMTCSASSSVTYMYWYQQKPGSSPRLLIYDTSNLASGVPVRFSGSGSGTSYSLTISRMEAEDAATYYCQQWSSHIFTFGSGTKLEIKGGGGSGGGGSGGGGSQVQLVESGAELVKPGASVKLSCKASGYTFTSHWMHWVKQRAGQGLEWIGEFNPSNGRTNYNEKFKSKATLTVDKSSSTAYMQLSSLTSEDSAVYYCASRDYDYDGRYFDYWGQGTTLTVSDYKDDDDKTGHHHHHH
For the molecule B1, the “cleavage by recombinant active MMP-9” value is listed as “completely cleaved”.
